*1 amine or outer side, *2 acyl side, *3 side chain or, on linkers, in order; H or OH if unused. Where no end group is shown, it is not given here. Side-chain parts run from the residue outwards. [ ]: non-standard residue; d: D form. The star is where a group is joined. C20 diacid = O=C(O)CCCCCCCCCCCCCCCCCCC(=O)*; γGlu = O=C(O)[C@H](CCC(=O)[*:2])N[*:1]; εLys = N[C@@H](CCCCN[*:1])C(=O)[*:2]; NMeI = CC[C@H](C)[C@H](NC)C(=O)O; αMeL = CC(C)C[C@](C)(N)C(=O)O; AEEA = NCCOCCOCC(=O)O; Aib = CC(C)(N)C(=O)O
T1: human corticotropin-releasing hormone receptor 1 (CRHR1) (human, UniProt P34998 24-415)
T1 sequence (looked up): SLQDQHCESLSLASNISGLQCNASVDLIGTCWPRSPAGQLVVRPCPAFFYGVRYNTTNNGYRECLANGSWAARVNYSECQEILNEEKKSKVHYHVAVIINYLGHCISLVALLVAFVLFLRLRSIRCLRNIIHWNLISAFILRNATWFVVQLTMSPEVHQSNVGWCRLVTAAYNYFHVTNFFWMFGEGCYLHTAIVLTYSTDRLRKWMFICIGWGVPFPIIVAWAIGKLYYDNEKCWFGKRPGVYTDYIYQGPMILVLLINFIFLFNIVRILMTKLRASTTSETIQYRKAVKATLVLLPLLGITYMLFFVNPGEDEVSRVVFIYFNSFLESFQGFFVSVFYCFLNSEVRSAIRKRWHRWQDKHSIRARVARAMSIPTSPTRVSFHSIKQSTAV


How the values were obtained:
Experiment in all cases: cell-based or functional assay
[1] = molecular target: T1, human corticotropin-releasing hormone …
[2] = molecular target: rat CRHR2 (endogenous on A7r5 cells) (rat, UniProt P47866 20-411)
rat CRHR2 (endogenous on A7r5 cells), sequence (P47866 20-411): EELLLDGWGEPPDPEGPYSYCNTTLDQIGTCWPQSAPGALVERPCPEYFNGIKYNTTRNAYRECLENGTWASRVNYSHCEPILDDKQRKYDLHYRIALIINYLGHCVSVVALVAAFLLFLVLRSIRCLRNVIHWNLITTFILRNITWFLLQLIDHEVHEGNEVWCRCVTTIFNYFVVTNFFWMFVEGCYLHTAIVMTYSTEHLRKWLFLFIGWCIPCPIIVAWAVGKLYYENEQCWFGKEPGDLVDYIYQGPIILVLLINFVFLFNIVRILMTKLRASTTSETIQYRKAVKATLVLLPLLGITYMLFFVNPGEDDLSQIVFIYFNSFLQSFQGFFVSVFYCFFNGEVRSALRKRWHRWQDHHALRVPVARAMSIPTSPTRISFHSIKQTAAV

[3] = molecular target: T1, human corticotropin-releasing hormone …; remark: listed apart in the source

Row | Binder | Y79 cAMP EC50 [1] [nM] | A7r5 cAMP EC50 [2] [nM] | hCRHR1 cAMP EC50 [3] [nM]
1 | Ac-PPPIVTS[αMeL]DVPT[Aib][αMeL]LQKLLEQERAEKARQQAK([γGlu-AEEA-εLys-C20 diacid])EAAEILAQV-NH2 [polypeptide comprising SEQ ID NO:48] | 4500 | 1.16 | > 10000
2 | [NMeI]VTSLDVPIG[αMeL]LQKLIEQEKQEKEKQQAKENTEILAQV-NH2 (not fully specified (residue 29)) [polypeptide comprising SEQ ID NO:49] | > 10000 | 0.137 | > 10000

Continued, values first:

Row | Y79 cAMP EC50 [1] [nM] | A7r5 cAMP EC50 [2] [nM] | hCRHR1 cAMP EC50 [3] [nM] | Binder
3 | 4000 | 0.313 | > 10000 | Ac-PPPIVTS[αMeL]D[dV]PT[Aib][αMeL]LQK[Aib]LEQERAEKARQQAK([γGlu-AEEA-εLys-C20 diacid])ENTEILAQV-NH2 [polypeptide comprising SEQ ID NO:46]
4 | 720 | 1.06 | 2300 | Ac-PPPIVTS[αMeL]D[dV]PT[Aib][αMeL]LQKLLEQERAEKARQQAK([γGlu-AEEA-εLys-C20 diacid])EAAEILAQV-NH2 [polypeptide comprising SEQ ID NO:47]
